Target: murine GM-CSF receptor (murine) (UniProt Q00941)
Assay: cell-based or functional assay

Sequence of UniProt Q00941 (Q00941 30-388, chain 1 of 2): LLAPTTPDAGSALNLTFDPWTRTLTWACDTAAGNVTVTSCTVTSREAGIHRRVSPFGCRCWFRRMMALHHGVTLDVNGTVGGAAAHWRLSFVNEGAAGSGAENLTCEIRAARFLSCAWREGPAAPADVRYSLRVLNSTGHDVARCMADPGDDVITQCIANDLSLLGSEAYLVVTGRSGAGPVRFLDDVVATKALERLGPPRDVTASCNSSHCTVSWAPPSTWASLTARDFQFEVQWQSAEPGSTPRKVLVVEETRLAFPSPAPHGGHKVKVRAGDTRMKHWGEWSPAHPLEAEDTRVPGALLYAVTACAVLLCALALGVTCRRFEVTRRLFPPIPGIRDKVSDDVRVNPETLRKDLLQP
Sequence of UniProt Q00941 (P26955 23-896, chain 2 of 2, further chain): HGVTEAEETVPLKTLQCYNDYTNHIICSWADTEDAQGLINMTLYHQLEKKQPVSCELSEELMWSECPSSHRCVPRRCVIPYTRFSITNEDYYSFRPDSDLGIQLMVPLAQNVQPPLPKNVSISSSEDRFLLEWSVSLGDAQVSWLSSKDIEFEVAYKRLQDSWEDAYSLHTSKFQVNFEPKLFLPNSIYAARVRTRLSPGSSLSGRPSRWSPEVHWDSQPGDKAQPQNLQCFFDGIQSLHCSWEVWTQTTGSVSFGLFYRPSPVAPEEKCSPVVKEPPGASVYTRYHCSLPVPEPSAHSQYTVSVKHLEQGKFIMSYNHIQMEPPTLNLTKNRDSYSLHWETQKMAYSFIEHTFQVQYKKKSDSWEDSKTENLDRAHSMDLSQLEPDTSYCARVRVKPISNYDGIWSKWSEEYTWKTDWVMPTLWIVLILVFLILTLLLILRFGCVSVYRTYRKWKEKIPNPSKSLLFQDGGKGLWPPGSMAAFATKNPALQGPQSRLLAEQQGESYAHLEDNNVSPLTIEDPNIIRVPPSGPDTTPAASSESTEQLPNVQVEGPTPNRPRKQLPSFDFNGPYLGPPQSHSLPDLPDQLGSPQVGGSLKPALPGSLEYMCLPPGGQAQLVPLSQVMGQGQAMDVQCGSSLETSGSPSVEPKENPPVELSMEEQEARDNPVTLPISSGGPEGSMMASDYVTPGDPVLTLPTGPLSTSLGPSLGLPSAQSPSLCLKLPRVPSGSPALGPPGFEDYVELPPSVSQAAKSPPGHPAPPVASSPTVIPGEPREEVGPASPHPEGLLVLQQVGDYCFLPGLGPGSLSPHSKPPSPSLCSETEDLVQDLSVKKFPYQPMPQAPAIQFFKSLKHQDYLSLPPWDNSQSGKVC

- proliferation of the GM-CSF dependent FDC-P1 cell line (Biotrak BrdU cell proliferation ELISA), 10 ng per well: 25%
Substance: murine GM-CSF fused to the S. cerevisiae Gas1 GPI modification signal sequence (GPI-GM-CSF) (from UniProt P01587 18-141; P22146 470-528) (other; the values are: proliferation increase vs soluble GM-CSF)
